Data set [1] relates to ALK (total protein levels in NB1 cells). Kind of data set: ALK turnover (total protein levels) by Western blot, 24 hour treatment of NB1 cells. The arrangement: key: − none; + weak; ++ moderate; +++ strong. Format: cell-based, human. An excerpt:
FIG. 5 depicts a Western blot of a panel of ALK antibodies.
See also Table 18, below.

The test system of data set [2] is ALK (basal phosphorylation in NB1 cells). In words: Western blot of ALK phosphorylation in NB1 cells. Format: cell-based, human. Conditions: for ALK phosphorylation: effect in words. The method, then: Lysed cells were subjected to SDS-PAGE, transferred to nitrocellulose and immunoblotted with antibodies against total, and phospho-specific ALK, AKT, and MAPK. FIG. 4B depicts an ELISA of NB1 cells grown in media with reduced serum and treated with 30-100 nM of each antibody for 1-2 hours. Cell lysates were incubated on ELISA plates with an anti-ALK antibody, followed by incubation with a pan phosphotyrosine antibody coupled to HRP.
Cell lysates were subjected to SDS-PAGE and transferred to nitrocellulose. Immunoblotting was performed with antibodies against total, and phospho-specific ALK, AKT, and MAPK (purchased from Cell Signaling and utilized per manufacturer's instructions). HRP (horse radish peroxidase)-conjugated secondary antibodies (Thermo Scientific, Waltham, Mass.) were used along with Supersignal West Pico Chemiluminescent Substrate (Thermo Scientific, Waltham, Mass.) to image blots.
Anti-ALK monoclonal antibodies generated in Example 1 were evaluated via Western blotting for their ability to activate or inhibit basal levels of ALK phosphorylation in NB1 cells (FIG. 4A). A subset of ALK antibodies stimulated ALK tyrosine phosphorylation and a different subset of antibodies inhibited basal levels of ALK phosphorylation. See also Table 18, below. […] That is, ALK antibodies that stimulated ALK tyrosine phosphorylation increased MAPK and AKT phosphorylation, whereas ALK antibodies that inhibited ALK tyrosine phosphorylation decreased basal levels of MAPK and AKT phosphorylation (FIG. 4A). Similar results were obtained in ELISA-based ALK phosphorylation assays from lysates of NB1 cells treated with ALK antibodies (FIG. 4B).

The target of data set [3] is C-terminal region of human ALK ECD (T637-S1038) (Homo sapiens, UniProt Q9UM73). In words: Competitive binding assay (epitope binning) by flow cytometry. The note with it: antibodies to the C-terminal region. The method, then:
Antibodies that bind to the C-terminal region of human ALK ECD (T637-S1038) were further characterized using a competitive binding assay. A pairwise matrix approach was used whereby each antibody was fluorescently labeled and tested for its ability to bind to ALK-expressing cells pre-incubated with an unlabeled antibody. The ability of both antibodies to bind the C-terminal domain simultaneously was tested via flow cytometry. If both antibodies bound simultaneously, they were put into different bins and considered to belong to a separate epitope class.

For the next data set, the system named is NB1 cells. Kind of data set: Crizotinib titration and co-titration with ALK antibodies, killing of NB1 cells. The data set is classed as cell-based, human.
The target in data set [4] is murine ALK (purified mouse ALK antigen) (Mus musculus, UniProt P97793). In words: Mouse ALK cross-reactivity, solid-state ELISA. Format: binding. Further details: key: − none; + weak; ++ moderate; +++ strong. The note with it: cross-reactivity with murine ALK. As for the experimental part: Purified mAbs were evaluated for their ability to bind murine ALK by solid-state ELISA, or flow cytometry on Neuro-2a cells that express low levels of endogenous murine ALK. […]

In data set [5] the target is T1, cell surface mALK on Neuro2a cells (Mus musculus, UniProt P97793).
T1 construct: Neuro-2a cells that express low levels of endogenous murine ALK; endogenous in cells; host or cells: Neuro-2a (Neuro2a) mouse neuroblastoma cells
Kind of data set: KD of humanized antibodies on Neuro2a (mouse) cells. Format: binding. The note with it: FACS, mean. The method, then:
(§1) Amino acid residues that differ between rat ALK and mouse ALK are boxed. KD values for both NB1 (human) cells and Neuro2a (mouse) cells were also determined.

For data set [6], the target named is human ALK (hALK, purified ALK protein) (Homo sapiens, UniProt Q9UM73). Kind of data set: Monovalent affinity of humanized antibodies, BLitz System, human ALK. The data set is classed as binding. The note with it: for Kd: BLitz, purified ALK protein at 70 μg/mL, single binding site fit, antibody by plate position of Table 19; for potency estimated from few doses: single dose kinetics. As for the experimental part:
The humanized ALK antibodies designed in Example 1 were tested for monovalent affinity, wherein the kinetic data are fit to a single binding site equation to obtain relative affinity values.
(§2) Kinetic measurements of the monovalent affinity of the 96 humanized ALK antibody variants (Ab351-Ab446) were collected. Affinity ranking was performed using a BLitz® System (ForteBio, Menlo Park, Calif.). Humanized anti-ALK antibodies were immobilized at 0.5 mg/mL using Protein A tips. Once baseline stability was ensured, purified ALK proteins at 70 μg/mL were added. The resulting kinetic data were fit to a single binding site equation, from which the quoted monovalent KD values were derived.
as §1

Data set [7] has as its system ALK on the surface of NB1 cells. Kind of data set: KD determination by flow cytometry on NB1 cells. The note with it: NB1 (human) cells, FACS, mean. The data set is classed as binding. The method, then: FIG. 3 depicts the apparent affinities (KD) of ALK antibodies for ALK expression on the surface of NB1 cells. KD was determined by flow cytometry. Titration of each antibody on NB1 cells for 2-4 hours at 4° C. was followed by incubation with a fluorescently-labeled secondary antibody. The normalized mean fluorescent intensity […] shown as “% Max binding” was plotted as a function of antibody concentration.
Flow cytometry was utilized to measure the affinity at steady state (KD) with which different ALK antibodies bind to ALK on the surface of NB1 cells (FIG. 3). Titration of each antibody on NB1 cells for 2-4 hours at 4° C. was followed by incubation with a fluorescently-labeled secondary antibody. The normalized mean fluorescent intensity (MFI) shown as “% Max binding” was plotted as a function of antibody concentration. The data were fit to a one site binding isotherm using GraphPad Prism, from which affinity values were derived.
as §1

The next data set has as its target T2, mouse ALK (mALK) (Mus musculus, UniProt P97793).
T2 construct: mouse ALK (mALK)
Kind of data set: Monovalent affinity of humanized antibodies, BLitz System, mouse ALK. Format: binding. Conditions: single dose kinetics. The method, then:
as §2, §1

T1 sequence (P97793 19-1621): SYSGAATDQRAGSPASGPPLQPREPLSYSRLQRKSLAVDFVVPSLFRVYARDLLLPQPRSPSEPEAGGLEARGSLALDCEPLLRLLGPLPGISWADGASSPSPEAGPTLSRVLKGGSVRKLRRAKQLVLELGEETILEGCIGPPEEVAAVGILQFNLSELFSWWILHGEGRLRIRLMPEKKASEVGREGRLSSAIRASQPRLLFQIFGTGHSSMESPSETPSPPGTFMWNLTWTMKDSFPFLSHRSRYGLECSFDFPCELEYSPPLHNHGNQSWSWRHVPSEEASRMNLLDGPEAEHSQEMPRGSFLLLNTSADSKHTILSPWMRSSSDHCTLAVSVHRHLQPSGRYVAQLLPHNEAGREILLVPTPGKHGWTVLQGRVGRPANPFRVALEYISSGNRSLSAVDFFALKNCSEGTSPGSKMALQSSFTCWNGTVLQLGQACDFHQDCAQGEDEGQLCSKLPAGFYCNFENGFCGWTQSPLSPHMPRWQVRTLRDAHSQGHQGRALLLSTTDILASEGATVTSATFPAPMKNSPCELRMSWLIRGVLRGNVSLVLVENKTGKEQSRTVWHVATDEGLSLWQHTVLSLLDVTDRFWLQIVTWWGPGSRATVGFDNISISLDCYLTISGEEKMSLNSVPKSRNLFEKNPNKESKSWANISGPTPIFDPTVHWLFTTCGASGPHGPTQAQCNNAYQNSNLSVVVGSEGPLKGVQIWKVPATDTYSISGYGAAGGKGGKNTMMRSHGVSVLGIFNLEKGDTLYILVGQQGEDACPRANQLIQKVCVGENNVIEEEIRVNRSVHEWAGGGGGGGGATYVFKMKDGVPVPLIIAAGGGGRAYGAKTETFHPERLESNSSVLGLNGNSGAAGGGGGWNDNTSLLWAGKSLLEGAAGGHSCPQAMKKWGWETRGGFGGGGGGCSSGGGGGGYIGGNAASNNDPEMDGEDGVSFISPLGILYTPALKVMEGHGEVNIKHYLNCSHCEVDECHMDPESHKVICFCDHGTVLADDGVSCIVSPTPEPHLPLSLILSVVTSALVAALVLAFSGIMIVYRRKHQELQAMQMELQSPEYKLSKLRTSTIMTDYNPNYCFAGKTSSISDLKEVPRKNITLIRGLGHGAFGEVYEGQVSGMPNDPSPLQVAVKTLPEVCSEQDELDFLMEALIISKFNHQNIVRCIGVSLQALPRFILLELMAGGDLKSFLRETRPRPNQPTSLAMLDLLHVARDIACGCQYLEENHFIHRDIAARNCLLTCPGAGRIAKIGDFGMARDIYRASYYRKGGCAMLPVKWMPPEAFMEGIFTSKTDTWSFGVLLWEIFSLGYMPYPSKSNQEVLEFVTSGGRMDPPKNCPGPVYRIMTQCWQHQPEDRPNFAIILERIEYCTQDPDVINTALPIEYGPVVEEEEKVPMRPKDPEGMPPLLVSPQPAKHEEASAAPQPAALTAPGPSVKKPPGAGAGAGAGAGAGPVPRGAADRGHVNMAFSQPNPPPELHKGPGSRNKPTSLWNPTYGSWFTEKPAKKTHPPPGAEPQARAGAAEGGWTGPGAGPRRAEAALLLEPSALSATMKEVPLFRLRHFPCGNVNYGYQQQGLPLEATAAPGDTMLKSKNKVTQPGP
Chain of human ALK (hALK, purified ALK protein) (Q9UM73 with tags, fused parts or gaps): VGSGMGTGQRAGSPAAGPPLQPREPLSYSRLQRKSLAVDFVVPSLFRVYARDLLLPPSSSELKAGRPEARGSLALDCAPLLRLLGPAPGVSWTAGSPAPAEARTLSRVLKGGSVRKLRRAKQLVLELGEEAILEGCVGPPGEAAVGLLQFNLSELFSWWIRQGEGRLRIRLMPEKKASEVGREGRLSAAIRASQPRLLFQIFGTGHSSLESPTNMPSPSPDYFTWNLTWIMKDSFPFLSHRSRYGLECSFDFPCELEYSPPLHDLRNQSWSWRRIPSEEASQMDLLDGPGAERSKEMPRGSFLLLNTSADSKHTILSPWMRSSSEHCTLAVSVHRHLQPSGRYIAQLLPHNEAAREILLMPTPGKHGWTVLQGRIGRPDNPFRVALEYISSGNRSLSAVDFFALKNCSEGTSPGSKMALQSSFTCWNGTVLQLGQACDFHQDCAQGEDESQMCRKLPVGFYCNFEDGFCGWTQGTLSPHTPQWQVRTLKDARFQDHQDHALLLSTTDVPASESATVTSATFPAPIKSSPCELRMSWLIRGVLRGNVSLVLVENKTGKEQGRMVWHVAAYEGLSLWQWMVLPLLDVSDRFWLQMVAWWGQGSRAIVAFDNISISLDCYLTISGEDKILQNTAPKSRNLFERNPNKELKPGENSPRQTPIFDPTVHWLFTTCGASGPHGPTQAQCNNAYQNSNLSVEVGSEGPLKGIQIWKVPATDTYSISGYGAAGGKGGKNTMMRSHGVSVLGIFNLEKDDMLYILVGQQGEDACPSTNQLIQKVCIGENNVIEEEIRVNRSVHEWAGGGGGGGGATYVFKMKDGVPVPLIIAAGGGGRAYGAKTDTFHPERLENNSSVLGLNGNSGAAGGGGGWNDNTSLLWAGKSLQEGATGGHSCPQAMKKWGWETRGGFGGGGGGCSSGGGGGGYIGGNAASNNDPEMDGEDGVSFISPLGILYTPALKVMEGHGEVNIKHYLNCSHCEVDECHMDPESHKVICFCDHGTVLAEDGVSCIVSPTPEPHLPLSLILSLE
T2 sequence (P97793 19-1042): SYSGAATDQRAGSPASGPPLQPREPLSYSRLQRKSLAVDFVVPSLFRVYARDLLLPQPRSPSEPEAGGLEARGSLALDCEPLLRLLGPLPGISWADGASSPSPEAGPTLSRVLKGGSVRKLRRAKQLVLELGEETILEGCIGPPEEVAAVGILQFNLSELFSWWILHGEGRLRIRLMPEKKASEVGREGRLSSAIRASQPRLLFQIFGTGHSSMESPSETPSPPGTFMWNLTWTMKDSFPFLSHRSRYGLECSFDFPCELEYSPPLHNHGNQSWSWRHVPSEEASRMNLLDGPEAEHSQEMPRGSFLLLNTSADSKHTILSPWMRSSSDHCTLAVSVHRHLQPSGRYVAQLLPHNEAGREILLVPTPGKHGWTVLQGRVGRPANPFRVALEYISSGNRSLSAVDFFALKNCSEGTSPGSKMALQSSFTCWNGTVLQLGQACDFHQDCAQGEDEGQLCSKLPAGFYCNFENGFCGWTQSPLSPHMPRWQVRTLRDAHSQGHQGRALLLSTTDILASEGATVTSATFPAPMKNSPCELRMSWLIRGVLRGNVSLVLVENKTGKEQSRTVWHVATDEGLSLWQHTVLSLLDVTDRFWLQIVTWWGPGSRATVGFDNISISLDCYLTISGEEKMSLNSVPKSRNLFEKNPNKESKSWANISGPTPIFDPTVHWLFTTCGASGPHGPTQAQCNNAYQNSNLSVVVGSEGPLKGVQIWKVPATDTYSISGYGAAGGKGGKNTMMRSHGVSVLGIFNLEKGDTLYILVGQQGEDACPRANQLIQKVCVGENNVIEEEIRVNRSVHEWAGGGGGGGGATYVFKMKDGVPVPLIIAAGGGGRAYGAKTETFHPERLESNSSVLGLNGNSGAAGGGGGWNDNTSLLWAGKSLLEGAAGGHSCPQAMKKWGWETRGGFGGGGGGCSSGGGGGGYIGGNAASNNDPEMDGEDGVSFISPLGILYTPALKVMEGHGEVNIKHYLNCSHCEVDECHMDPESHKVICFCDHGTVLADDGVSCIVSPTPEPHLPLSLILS
Chain of murine ALK (purified mouse ALK antigen) (P97793 19-1042 limits assumed): as the sequence (P97793 19-1042) above

B1: Ab327: anti-ALK monoclonal antibody; VL SEQ ID NO: 409, VH SEQ ID NO: 410 (antibody, V domains shown)
VH: DVKLVESGEGLVKPGGSLKLSCAASGFTFSSYAMSWVRQTPEKRLEWVTYISSGGDYIYYADTVKGRFTISRDNARNTLYLQMSSLKSEDTAMYYCTRERIWLRRFFDVWGTGTTVTVSS
VL: DIVMTQSQKFMSTSVGDRVSITCKASQNVGTAVAWYQLKPGQSPKLLIYSASNRFTGVPDRFTGSGSGTDFTLTISNMQSEDLADYFCQQYSSYPLTFGSGTKLEIKR
modifications: VH domain - Ab327; VL domain - Ab327
For the molecule B1, the ALK turnover entry in data set [1] was “++”. In data set [2], the “effect on ALK activity (ALK inhibitory or ALK agonistic antibody)” value is “inhibitory” and the ALK phosphorylation result is listed as “inhibitor”. Further, the “Bin/Domain (bin)” value in [3] came out at 2. In addition, the “effect on the anti-proliferative effect of crizotinib” value in the data set on NB1 cells (co-titration of crizotinib with the antibody) is on record as “enhanced”. Moreover, the “mouse ALK binding” value in [4] is “+++”.

B2: Ab400: humanized anti-ALK antibody; VL SEQ ID NO: 425, VH SEQ ID NO: 430 (antibody, V domains shown)
VH: EVQLVQSGPEVKKPGTSVKLSCKASGYTFTSYWMHWVRQARGQRLEWIGYIKPSSGYTKYNQKFKDRATLTADKSTSTAYMELSSLRSEDTAVYYCARDYYGSSSWFAYWGQGTLVTVSS
VL: EIVMTQSQATMSTSVGERATLSCKASQNVGTNVAWYQQKPGQSPKALIYSASYRYSGVPARFSGSGSGTDFTLTISSVEPEDFAVYYCQQYNSYPYMYTFGQGTKLEIK
modifications: VH domain - Ab352; VL domain - Ab399
As for B2, the equilibrium dissociation constant (Kd) (in general, the equilibrium constant for the complex coming apart) in data set [5] was 7.4 nM; in data set [6], 81.5 nM; in data set [7] it was 1.3 nM. Also, the potency estimated from few doses in [6] was 59 nM.

B3: Ab355: humanized anti-ALK antibody; VL SEQ ID NO: 421, VH SEQ ID NO: 433 (antibody, V domains shown)
VH: QVQLVQSGAEVAKPGASVKLSCKASGYTFTSYWMHWVKQAPGQGLEWIGYIKPSSGYTKYNQKFKDKATLTADKSTSTAYMELRSLRSDDTAVYYCARDYYGSSSWFAYWGQGTLVTVSS
VL: EIVMTQSPAFLSVTPGEKVTITCKASQNVGTNVAWYQQKPDQAPKALIYSASYRYSGVPSRFSGSGSGTDFTLTISSLEAEDAATYYCQQYNSYPYMYTFGQGTKLEIK
modifications: VH domain - Ab355; VL domain - Ab351
Consider B3, for which the dissociation constant Kd in data set [5] amounted to 5.1 nM; in [7] it was 1.26 nM.

B4: Ab402: humanized anti-ALK antibody; VL SEQ ID NO: 425, VH SEQ ID NO: 432 (antibody, V domains shown)
VH: EVQLVQSGAEVKKPGTSVKLSCKASGYTFTSYWMHWVRQARGQRLEWIGYIKPSSGYTKYAQKFQERVTLTADKSTSTAYMELSSLRSEDTAVYYCARDYYGSSSWFAYWGQGTLVTVSS
VL: EIVMTQSQATMSTSVGERATLSCKASQNVGTNVAWYQQKPGQSPKALIYSASYRYSGVPARFSGSGSGTDFTLTISSVEPEDFAVYYCQQYNSYPYMYTFGQGTKLEIK
modifications: VH domain - Ab354; VL domain - Ab399
B4: the Kd was 2.8 nM in [5], 87.6 nM in data set [6] and 1.5 nM in data set [7]. For the same molecule, the potency estimated from few doses is 147 nM in the data set with mouse ALK (mALK) and 71 nM in [6].

B5: Ab403: humanized anti-ALK antibody; VL SEQ ID NO: 425, VH SEQ ID NO: 433 (antibody, V domains shown)
VH: QVQLVQSGAEVAKPGASVKLSCKASGYTFTSYWMHWVKQAPGQGLEWIGYIKPSSGYTKYNQKFKDKATLTADKSTSTAYMELRSLRSDDTAVYYCARDYYGSSSWFAYWGQGTLVTVSS
VL: EIVMTQSQATMSTSVGERATLSCKASQNVGTNVAWYQQKPGQSPKALIYSASYRYSGVPARFSGSGSGTDFTLTISSVEPEDFAVYYCQQYNSYPYMYTFGQGTKLEIK
modifications: VH domain - Ab355; VL domain - Ab399
In the case of B5, the values for the Kd in data set [5], in data set [6] and in data set [7] were 4.15 nM, 94.2 nM and 0.73 nM, respectively. Also, the potency estimated from few doses with mouse ALK (mALK) was 120 nM; in data set [6], 80 nM.

B6: Ab352: humanized anti-ALK antibody; VL SEQ ID NO: 421, VH SEQ ID NO: 430 (antibody, V domains shown)
VH: EVQLVQSGPEVKKPGTSVKLSCKASGYTFTSYWMHWVRQARGQRLEWIGYIKPSSGYTKYNQKFKDRATLTADKSTSTAYMELSSLRSEDTAVYYCARDYYGSSSWFAYWGQGTLVTVSS
VL: EIVMTQSPAFLSVTPGEKVTITCKASQNVGTNVAWYQQKPDQAPKALIYSASYRYSGVPSRFSGSGSGTDFTLTISSLEAEDAATYYCQQYNSYPYMYTFGQGTKLEIK
modifications: VH domain - Ab352; VL domain - Ab351
For B6, the figures for the equilibrium dissociation constant (Kd) in [5] and in data set [7] were 7.7 nM and 1.4 nM, respectively.

B7: Ab323: anti-ALK monoclonal antibody; VL SEQ ID NO: 401, VH SEQ ID NO: 402 (antibody, V domains shown)
VH: QVQLQQSGAELVKPGASVKISCKTSGYTFSNYWMNWVKQRPGKGLEWIGQIFPGDADANYNGKFKGKATLTADKSSSAAFMQLSSLTSEDSAVYFCARFSYDGAFAYWGQGTLVTVS
VL: DIVMTQSHKFMSTSVGDRVSITCKASQDVSTAVAWYQQKPGQSPKPLIYWASTRHTGVPDRFTGSGSGTDYTLTISSVQTEDLALYYCQQHYSTPRTFGGGTKLEIKR
modifications: VH domain - Ab323; VL domain - Ab323
As to B7, in data set [1], the ALK turnover result is recorded as “++”. Moreover, in data set [2], the “effect on ALK activity (ALK inhibitory or ALK agonistic antibody)” value is given as “agonistic” and the ALK phosphorylation result is recorded as “weak agonist”. Further, the “Bin/Domain (bin)” value in [3] stood at 1. Also, the “effect on NB1 cell death caused by crizotinib” value with NB1 cells (constant amount of antibody added to crizotinib titration) is on record as “partially rescued”. The “mouse ALK binding” value in data set [4] is on record as “+++”.

The record behind these values is patent US11091559B2, “Anti-ALK antibodies and methods for use thereof” (Celldex Therapeutics, Inc., priority 2015, dated 2021).
